Here are results for 125 sequences from the supplement of paper PMC9112550, “Optimization of the antimicrobial peptide Bac7 by deep mutational scanning” (BMC Biology, 2022).

For the data set, the system named is Escherichia coli TOP10. In words: shrunken log2 fold change of peptide-encoding DNA abundance (4.5 h post-induction vs induction); higher = less antimicrobial activity (less host growth inhibition). The settings on record: time post-induction: 4.5 h; library: site-saturation at positions 5, 18, 19, 20.
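Note: peptides expressed intracellularly from a pBAD plasmid library in pooled LB shake-flask culture, induced with 0.3% L-arabinose, DNA abundance read by NGS, three biological replicates, DESeq2 with apeglm shrinkage.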

On to RRIRMRPPRLPRPRPRPWCFPRP, for which the “shrunken log2 fold change” value was -0.144.
Then RRIRNRPPRLPRPRPRPATRPRP, with 0.322; and RRIRVRPPRLPRPRPRPNATPRP, with 0.172; and RRIRLRPPRLPRPRPRPQVKPRP, with -0.319.
On to RRIRARPPRLPRPRPRPESYPRP, for which the “shrunken log2 fold change” value is 1.13.
Consider RRIRARPPRLPRPRPRPDMIPRP, for which the “shrunken log2 fold change” value is -0.0395.
With RRIRYRPPRLPRPRPRPQFNPRP, the “shrunken log2 fold change” value is -0.755.
For the sequence RRIRGRPPRLPRPRPRPVWCPRP, the “shrunken log2 fold change” value turned out to be 0.245.
Then RRIRHRPPRLPRPRPRPGRHPRP, with -0.0683.
As for RRIRWRPPRLPRPRPRPNLHPRP, the “shrunken log2 fold change” value is -0.269.
Then RRIRRRPPRLPRPRPRPRRIPRP, with 0.251; and RRIRLRPPRLPRPRPRPNYKPRP, with -0.752.
Regarding RRIRDRPPRLPRPRPRPWAYPRP, the “shrunken log2 fold change” value is 0.0388.
Consider RRIRNRPPRLPRPRPRPLYDPRP, for which the “shrunken log2 fold change” value was -0.0765.
RRIRYRPPRLPRPRPRPRYTPRP: the “shrunken log2 fold change” value was -0.0817.
As for RRIRNRPPRLPRPRPRPRKYPRP, the “shrunken log2 fold change” value is -0.258.
In the case of RRIRERPPRLPRPRPRPNWRPRP, the “shrunken log2 fold change” value was 0.194.
As to RRIRTRPPRLPRPRPRPMSLPRP, the “shrunken log2 fold change” value is -0.147.
Then RRIRVRPPRLPRPRPRPVLDPRP, with -0.145; and RRIRDRPPRLPRPRPRPPECPRP, with 0.0841; and RRIRLRPPRLPRPRPRPEFNPRP, with -0.0571.
Turning to RRIRLRPPRLPRPRPRPDSRPRP, the “shrunken log2 fold change” value amounted to 0.0292.
Take RRIRIRPPRLPRPRPRPYFDPRP: the “shrunken log2 fold change” value is -0.711.
With RRIRVRPPRLPRPRPRPYMAPRP, the “shrunken log2 fold change” value was -0.629.
On to RRIRIRPPRLPRPRPRPSKIPRP, for which the “shrunken log2 fold change” value is -0.441.
Then RRIRFRPPRLPRPRPRPLQKPRP, with -0.235; and RRIRPRPPRLPRPRPRPSLLPRP, with -0.205; and RRIRMRPPRLPRPRPRPAFMPRP, with 0.211.
Then RRIRGRPPRLPRPRPRPMRMPRP, with 1.4.
Then RRIRQRPPRLPRPRPRPISAPRP, with -0.0212; and RRIRYRPPRLPRPRPRPNRYPRP, with -0.499.
Take RRIRGRPPRLPRPRPRPLGRPRP: the “shrunken log2 fold change” value was determined as 0.599.
In the case of RRIRCRPPRLPRPRPRPHCWPRP, the “shrunken log2 fold change” value was -0.0254.
Then RRIRYRPPRLPRPRPRPKCKPRP, with -0.161; and RRIRLRPPRLPRPRPRPIIFPRP, with -0.288.
With RRIRKRPPRLPRPRPRPPPNPRP, the “shrunken log2 fold change” value was 0.982.
Then RRIRGRPPRLPRPRPRPVDKPRP, with 0.319; and RRIRVRPPRLPRPRPRPAKNPRP, with 0.153.
Then RRIRNRPPRLPRPRPRPLLCPRP, with 0.0225.
Turning to RRIRMRPPRLPRPRPRPDCNPRP, the “shrunken log2 fold change” value is 2.08.
Then RRIRWRPPRLPRPRPRPLQPPRP, with 0.54; and RRIRGRPPRLPRPRPRPLIEPRP, with 0.801.
Consider RRIRMRPPRLPRPRPRPHAQPRP, for which the “shrunken log2 fold change” value was -0.015.
Then RRIRSRPPRLPRPRPRPHDNPRP, with -0.308.
On to RRIRFRPPRLPRPRPRPMLCPRP, for which the “shrunken log2 fold change” value was -0.103.
For the sequence RRIRHRPPRLPRPRPRPHGNPRP, the “shrunken log2 fold change” value was -1.11.
Then RRIRKRPPRLPRPRPRPCYWPRP, with 0.0448.
With RRIRMRPPRLPRPRPRPEWLPRP, the “shrunken log2 fold change” value stood at 0.056.
Then RRIRHRPPRLPRPRPRPDTYPRP, with -0.24; and RRIRHRPPRLPRPRPRPYHLPRP, with -0.085.
Then RRIRQRPPRLPRPRPRPESTPRP, with -0.0105; and RRIRARPPRLPRPRPRPIWTPRP, with -0.144; and RRIRARPPRLPRPRPRPNKQPRP, with 0.165.
For the sequence RRIRHRPPRLPRPRPRPFFQPRP, the “shrunken log2 fold change” value was -0.202.
As to RRIRSRPPRLPRPRPRPDDYPRP, the “shrunken log2 fold change” value turned out to be 0.0211.
With RRIRWRPPRLPRPRPRPMHNPRP, the “shrunken log2 fold change” value is -0.218.
With RRIRERPPRLPRPRPRPYLYPRP, the “shrunken log2 fold change” value was -0.927.
On to RRIRVRPPRLPRPRPRPWNLPRP, for which the “shrunken log2 fold change” value is -0.14.
Then RRIRIRPPRLPRPRPRPKKAPRP, with -0.209; and RRIRDRPPRLPRPRPRPPPQPRP, with 0.775.
In the case of RRIRWRPPRLPRPRPRPMKPPRP, the “shrunken log2 fold change” value is -0.0125.
Then RRIRRRPPRLPRPRPRPARIPRP, with 0.0165; and RRIRDRPPRLPRPRPRPPKMPRP, with 0.166.
Turning to RRIRGRPPRLPRPRPRPHENPRP, the “shrunken log2 fold change” value stood at 0.446.
As to RRIRERPPRLPRPRPRPQDHPRP, the “shrunken log2 fold change” value is -0.0577.
Turning to RRIRNRPPRLPRPRPRPYNGPRP, the “shrunken log2 fold change” value was found to be 0.0167.
For the sequence RRIRMRPPRLPRPRPRPQALPRP, the “shrunken log2 fold change” value was 0.0439.
Then RRIRKRPPRLPRPRPRPYNWPRP, with -0.155; and RRIRDRPPRLPRPRPRPLPSPRP, with -0.0341.
Then RRIRERPPRLPRPRPRPHRLPRP, with -0.18; and RRIRFRPPRLPRPRPRPLYGPRP, with -0.303; and RRIRCRPPRLPRPRPRPTCRPRP, with 0.211.
With RRIRLRPPRLPRPRPRPNCLPRP, the “shrunken log2 fold change” value is -0.61.
Turning to RRIRCRPPRLPRPRPRPHALPRP, the “shrunken log2 fold change” value is -0.0688.
Then RRIRARPPRLPRPRPRPFIKPRP, with -0.529; and RRIRTRPPRLPRPRPRPHRKPRP, with -0.0762; and RRIRKRPPRLPRPRPRPRFLPRP, with 0.101.
For RRIRFRPPRLPRPRPRPIMIPRP, the “shrunken log2 fold change” value was -0.113.
In the case of RRIRERPPRLPRPRPRPQTKPRP, the “shrunken log2 fold change” value stood at 0.0765.
Then RRIRGRPPRLPRPRPRPTEVPRP, with 0.311; and RRIRWRPPRLPRPRPRPMWHPRP, with -0.139; and RRIRGRPPRLPRPRPRPKKMPRP, with 0.572.
Then RRIRNRPPRLPRPRPRPMQKPRP, with 0.0161; and RRIRSRPPRLPRPRPRPKDIPRP, with -0.828; and RRIRLRPPRLPRPRPRPMWIPRP, with -0.199.
Then RRIRRRPPRLPRPRPRPFYEPRP, with -0.0293; and RRIRLRPPRLPRPRPRPQSRPRP, with -0.377.
RRIRVRPPRLPRPRPRPMFRPRP: the “shrunken log2 fold change” value is -0.048.
Then RRIRYRPPRLPRPRPRPHFLPRP, with -0.13; and RRIRTRPPRLPRPRPRPEYTPRP, with -0.052; and RRIRGRPPRLPRPRPRPMQNPRP, with 0.873.
Then RRIRCRPPRLPRPRPRPPSVPRP, with 0.292; and RRIRDRPPRLPRPRPRPEAQPRP, with 1.66.
Take RRIRYRPPRLPRPRPRPDSNPRP: the “shrunken log2 fold change” value was -2.93.
For the sequence RRIRWRPPRLPRPRPRPIDDPRP, the “shrunken log2 fold change” value was -0.152.
Then RRIRVRPPRLPRPRPRPYSNPRP, with -0.676; and RRIRERPPRLPRPRPRPCIMPRP, with -0.397.
Then RRIRFRPPRLPRPRPRPDAEPRP, with 0.373; and RRIRQRPPRLPRPRPRPWFWPRP, with 0.00186; and RRIRIRPPRLPRPRPRPMSKPRP, with -0.332.
Then RRIRYRPPRLPRPRPRPAIWPRP, with 0.0587.
For the sequence RRIRIRPPRLPRPRPRPGDVPRP, the “shrunken log2 fold change” value was -0.227.
Then RRIRYRPPRLPRPRPRPGFWPRP, with 0.689; and RRIRLRPPRLPRPRPRPTVHPRP, with -0.131; and RRIRYRPPRLPRPRPRPSFCPRP, with -0.793.
Then RRIRERPPRLPRPRPRPFWGPRP, with 0.0105.
In the case of RRIRRRPPRLPRPRPRPSGIPRP, the “shrunken log2 fold change” value is -0.0479.
As for RRIRHRPPRLPRPRPRPQGHPRP, the “shrunken log2 fold change” value is -0.268.
Then RRIRSRPPRLPRPRPRPMEAPRP, with -0.00776.
With RRIRTRPPRLPRPRPRPTPFPRP, the “shrunken log2 fold change” value was 0.356.
In the case of RRIRSRPPRLPRPRPRPCHKPRP, the “shrunken log2 fold change” value is -1.16.
Consider RRIRERPPRLPRPRPRPHTLPRP, for which the “shrunken log2 fold change” value was -0.571.
Then RRIRLRPPRLPRPRPRPPEVPRP, with -0.0157; and RRIRIRPPRLPRPRPRPFIFPRP, with -0.696; and RRIRERPPRLPRPRPRPLTHPRP, with -0.413.
Consider RRIRMRPPRLPRPRPRPIWDPRP, for which the “shrunken log2 fold change” value stood at 0.0663.
Then RRIRMRPPRLPRPRPRPWAYPRP, with -0.012; and RRIRNRPPRLPRPRPRPTQAPRP, with 0.24; and RRIRLRPPRLPRPRPRPTYSPRP, with -0.572.
With RRIRVRPPRLPRPRPRPRERPRP, the “shrunken log2 fold change” value is 0.578.
Then RRIRARPPRLPRPRPRPHQFPRP, with -0.024.
Regarding RRIRSRPPRLPRPRPRPYAFPRP, the “shrunken log2 fold change” value is -0.487.
Then RRIRARPPRLPRPRPRPNHIPRP, with -0.8.
Then RRIRNRPPRLPRPRPRPWAEPRP, with 0.125; and RRIRKRPPRLPRPRPRPWDDPRP, with 0.0248.
